Results published in the nanobody polyreactivity screen of Harvey et al. (2022).

Test: yeast display, Sf9 membrane polyspecificity reagent, FACS + sequencing; frameworks hold sequencing errors
Procedure, shortened: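 Sorting gates, low and high (top ~1%), were placed on anti-HA fluorescence to track expression and on streptavidin fluorescence to track reagent binding. A clone's polyreactivity label is taken from the gate it came out of. The reagent was 10% biotinylated, detergent-solubilized Sf9 membrane, applied for 1 hour at 4 °C to galactose-induced yeast display cells.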

Row | Sequence | polyreactivity (PSR sort gate)
1 | QVQLVESGGGLVQARGSLRLICAASGRIFPDYGMGWYRQAPGKESEFDAVIDWIGVSTYYADSVKGRFTISRDNAKNTVYLQINSLKPEDTAVYYCNAEYAFPSPKSSLDYWGQGTQVTVSS | low polyreactivity
2 | QVQLVESGGGLVQAGGSLRLSCAPSGSTFSGYAMGWYRQAPGKEREFVATISISGCSTYYADSVKGRFTISRDNAKNTVYLQMNSLKPEDTAVYYCAKDSGSYRVGIYEPFPYGYWGQGTQVTVSS | low polyreactivity
3 | QVQLEESGGGLVQAGGSLRISCAASGSIVRYKAMGWYRQAHGKERELVAAISSRGGSTYYADSVKGRFTISRDNAKNTVYLQMNSLKPEDTAVYYCNVRWTYKYDYWGQGTQVTVSS | high polyreactivity
4 | QVQLVESGGGLVQAGGSLRLRCADSGSTFYDNAMGWYRQATGKVRELVATISDSGGRTYYADSVKGRFTISRDNAKNTVYLQMNSLKPEDTAVYYCAADNYYITTVTDMYYWGQGTQVTVSS | low polyreactivity
5 | QVQLVESGGGLVQAGGSLRLSCAASGSIFYVYAMGWYRQAPGKERELVAAITARVTSTYYADSVKGRFTISRDNAKNTVYLQMNSLKPEDTAVYSCAARTSYKTGYRKYDYWGQATQVTVSS | low polyreactivity
6 | QVQLVESVGGLDQAGGSLRLSCAASGFILSWYAMGWYRQAPGKERELVAGISRRGGSTYYADSVTGRFTISRDNAKNTVYLQMNSLKPEDTAVYYCNALYDEWSVSTGDYWGQGTQVTVSS | high polyreactivity
7 | QVQLVESGGGLVQAGGSLRLSCAASGIIFESYAMGSYRQAPGKEREFVAAISSRGGSTYYADSVKGRFTISRDNAKNTVYLQMNSLKPEDTAVYYCAARGYRRTFDYREYDSWGQGTQVTVSS | low polyreactivity
8 | QVQLVESGGGLVQAGCSLRLSCAASGRTFSSYAMGWYRQSPGKERELVAAINRGGGSTYYADSVKGRFTISRDNAKNTVYLQMNSLKPEDTAVYYCNARSKRTYEYDYWGQGTQVTVSS | high polyreactivity
9 | QVQLQESAGGLVQAGGSLRLRFSASAYNSCDASMGWYSQAPGKERELSASISKGSSTNYADSVKGRFTIRDNAKNSVYLQMNSLKPEVTAVCYCAVTYPYWGDYTYWGQGTQVSVSS | low polyreactivity
10 | QVQLVESGGGLVQAGGSLRLSCAASGFTFEKYVMGWYRQAPGKEREFVAAITRSGGRTYYADSVKGRFTISRDNAKNTVYLQMNSLKPEDSAVYYCAAAFSRSDTGGGSWGQGTEVTVSS | high polyreactivity
11 | QVQLVESGGGLVQAGGSLRLSCAASGGIFTAYPMGWSRQAPGKERELVATITRGGSTNYADSVKGRFTISRDNAKNTVYLQMNSLKPEDTAVYYCNARYSWRSKWWTEDDYWGQGTQVTVSS | high polyreactivity
12 | QVQLVESVGGLVQAGGSLRLSCAASGRTFLYYTMGWYRQAPGKERELVAAISTSGGSTNYADSVKGRFTISRDNAKNTVYLQMNSLKPEDTAVYYCAAETSTNPEAYEYWGQGTQVTVSS | low polyreactivity
13 | QVQLVESGGGLVQAGGSLRLSCAASGFILSPNTMGWYRQAPGKERALVAAISSDVSTYADSVKGRFTISRDNAKNTVYLQMNSLKPEDTAVYYCNADAFGYASYEYWGQGTQVTVSS | low polyreactivity
14 | QVQLVESGGGLVQAGGSLRLSCAASGRISSYYVMGWYRQAPGKERELVAAITGGDSTNYADSVKGRFTISRDNAKNTVYLQMNSLKPEDTAVYYCAAKAYSYSRWGYYGYYYWGQGSQVTVSS | high polyreactivity
15 | QVQLVESGGGLVQAGGSLRLICAASGLTFSGYVMAWYRQAPGKERELVAAISLSGGSTYYADSVKGRFTISRDNAKNTVYLQMNSLKPEDTAVYYCAASTRFYNSYRREYWGQGTQVTVSS | high polyreactivity
16 | QVQLVESGGGLVQAGGSLRLSCAASGSTQYGYAMGWYRQAPRKERELVAAINTGGSTNYADSVKGRFSISRDNAKNSVYLQMNSLKPEDTAVYYCAADYEWDAFSYDYWGQGTQVTVSS | low polyreactivity
17 | QVQLVESGGGLVQAGGSLRLSCAASGSILRSYAMGWYRQAPWKERELVAVINGSGGRTYYADSVKGRFTISRDIAKNTVYLQMNSLKPEDTAVYYCNADPGGRYPRRGYAHEGDYWGQGTQVTVSS | low polyreactivity
18 | QVQLVESGGRLVQAGGSLRLSCAASGLIFYTYAMGWYRKAPGKERELVADINRSDGSTYYADSVKGRFTISRDNAKNTVYLQMNSLKPEDTAVYYCAVVGPYYSRFGGRYYYWGQGTQVTVSS | low polyreactivity
19 | QVQLVESGGGFVQAGGSLRLSCAASGRTFWNYAMGWYRPAPGKERELVAVIRFSDGSTYYADSVKGRFTISRDHAKNTVYLQMNSLKPEDTAVYYCAAKGPRRWGSGFDYWGQGTQVTVSS | low polyreactivity
20 | QVQLVESGGGLVQAGGSLRLSCAASGSTFDVNAMGWYRPAPGKERELVAAISWNSGSTYYADSVKGRFTISRDNAKNTVYLQLNSLKPEDTAVYYCAATYGTGRRSKYGYWGQGTQVTVSS | high polyreactivity
21 | QVQLVESGGGLVQAGGSLRLSCAASGFISTINVMGCYRQAPGKERELVAAITYIDGSTFYADSVKGRFTISRDNAKNTVYFQMNSLKPEDTAVYYCASDLYLWGAVFLYVRSTGLDYWGQGTQVTVSS | low polyreactivity
22 | QVQLVESGGGLVQAGGSLRLSCAASGSIFGLYAMGWYRQAPGKERELVAAISGSGSRTYYADSVKGRFTISRDNAKNTVYLQMNSLKPEDTAVYYCAADRYWYGVHASIYYYWGQGTQVTVSS | high polyreactivity

Row | Sequence | polyreactivity (PSR sort gate)
23 | QVQLVESGGGLVQAGGSLRLSCAASGSIFTPYAMGWYRQAPGKEREFVADIDDSGGGTYADSVKGRFTISRDNAKNTVYLQMNSLKPEDTAVYYCNADTGIWDYRFVDRDYWGQGTQVTVSW | low polyreactivity
24 | QVQHVESGGGLVQAGGSLRLSCAASGSTSPGYAMGWSRQAPGKERELVAAITFRGTRTYYADSVKGRFTISRDNAKNTVYLQMNSQKPEDTAVYYCNVVGYGPNRGRVDYWGQGTQVTVSS | high polyreactivity
25 | QVQLVESGGGLDQAGGSLRLSCAASGRTNAPYAMGWYRPAPGKERELVAAISGGGSTNYADSVKGRFTISRDNAKNSVYLQMNSLKPEDTAVYSCAADQYHGVGINFRSDYDYWGQGTQVTVSS | low polyreactivity
26 | QVQLVESGGGLVQAGGSLRLSCAASGSTFSANTMGWYRPAPGKERELLAAISSSGVGTRYADSVKGRFTISRDTAKNNVYLQMKSLKPEDTAVYYCAADYRPTVITRNDYWGQGTQVTVSS | low polyreactivity
27 | QVQLVESGGGLVQAGGSLRLSCAASGSIIGRYTMGWYRQAPGKERELVAAISRSGGSTYYADSVKGRFTISRDNAKNTVYLQMNSLKPEDTAVYYCAKRTYTPRGERLYSSYDYWGQGTQVTVSS | high polyreactivity
28 | QVQLVESGGGLVQAGGSLRLSCAASGRIFTVNAMGWYRQAPGKERELVASITGRGTRTYYADSVKGRFTISRDNAKNTVYLQMNSLKPEDTAVYYCAAAVARVKYDSKGYYWGQGTQVTVSS | high polyreactivity
29 | QVQLVESGGGLVQAGGSLSLSCAASGSTFLKYTMGWYRQAPWKERELVAAISKSGGSTYYADSVKGRFTISRDNAKNTVYLQMNSLKPEDTAVYYCAKGRYWVYSYGYGYWGQGTQVTVSS | high polyreactivity
30 | QVQLVESGGGLVQAGGSLRLSCAASGRTFVYYAMGWYRQAPGKERELVAAITSGGSTNYADSVKGRFTISRDNAKNTVYLQMNSLKPEDTAVYYCNAYGVSWFYYTWKYDYWGQGTQVTVSS | low polyreactivity
31 | QVQLVESGGGLVQAGGSLRLSCAASGSTFYINAMGWYRQAPGKERELVADITVRGGNTYYADSVKGRFTISRDNAKNTVYLQMNSLKPEDTAVYYCAADDWGFWYDYWGQGTQVTVSS | high polyreactivity
32 | QGQLVESGGGLVQAGGILRLSCAASGIIFCRYAMGWYRQAPGKERELVATITWRGGSTYYADSVKARFTNSRDNAKNTVYLQMNSLKPEDTAVYSSAADTRPSRSFRARDYWGQGTQVTVSS | low polyreactivity
33 | QVQLVESGGGLVQAGGSLRLSCAASGRIFQRYAMGWYRQAPGKERELVAVITKRGGNTYYADSVKGRFTISRDNAKNTVYLQMNSLKPEDTAVYYCATRSGRSTGDYWGQGTQVTVSS | high polyreactivity
34 | QVQLVESGGGLVQAGGSLRLSCAASGSISNRNAMGWYRQAPGKERELVAAITYSGGSTYYADSVKGRFTISRDNAKNTVYLQMNSLKPEDTAVYYCAKDHYRFRYDYWGQGTQVTVSS | low polyreactivity
35 | QVQLVESGGGLVQAGGSLRLSCAASGRNFYPYAMVWYRQAPGKERELVAAISKSGGRTYYADSVKGRFTISRDNAKNTVDLQMNSLKPEDTAVYYCNAAPGYTYVTYDYWGQGTLVTVSS | high polyreactivity
36 | QVQLVESGGGLVPSGGSLRLSCAASGGIFYFNAMGWYRQAPGKERELVASITWSGGNTYYADSVKGRFTISRDNAKNTVSLQMNSLKPEDTAVYYSAADTQEYRPTYDYWGQGTQVTVSS | low polyreactivity
37 | QVQLVESGGGLVQAGGSLRLSCAASGRTFYVYAMGWYRQAPGKERELVAAIDFSSTSTYADSVKGRFTISRDNAKNTVYLQMNSLKPEDTAVYYCNVDPDLGGFDYWGQGTQVTVSS | low polyreactivity
38 | QVQLVESGGGLVQAGGSLRLSCAASGLTFGYYSMGWYREAPGKERELVAAITYSGGSTYYADSVKGRFTISRDNAKNTVYLQMNSLKPEDTAVYYCAAEGPVYTTYEYWGQGTQVTVSS | low polyreactivity
39 | QVQLQESGGGLVQAGGSLGCEASGNISTRSEMGWYRQAPGKEREFVATINSGGITNYADSVKGRFTISRDNAKNTVYLRMNSLKPEDTAVYYRAVYGYFSDPYDYWGQGTQVTVSS | low polyreactivity
40 | QVQLVESGGGLVQAGGSLRLSCAASGFTFRYNAMGWYRQAPGKEREFVAAITVTGGSTYYADSVKGRFTISRDNAKNTVYLQMNCLKPEDTAVYYCNAYRYTSSKFGYWGQGTQVTVSS | low polyreactivity
41 | QVQLVESGGGLVQAGGSLRLSCAASGRTFPYYTMGWYRQAPGKERELVAAITSGGSTYYADSVKGRFTISRDNAKNTVYLQMNSLKPEDTAVYYCNKDAYYWGQGTQVTVSS | low polyreactivity
42 | QVQLVESGGGLVQAGGSLRLSCAASGRIFTSNAMGWYRLAPGKERELVAAISSSSGSTYYADSVKGRFTISRDNAKNTVYLQMNSLKPEDTAVYYCAARTWRVSGTYKYDYWGQGTQVTVSS | low polyreactivity
43 | QVQLVESGGGLVQAGGSLRLSCAASGRIFAYYAMGWYRQPPGKERELVAAISRSGVSTYYADSVKGRFTISRDNAKNTVYLQMNSLKPEDTAVYYCAKTLSPEGVPYDYWGQGTQVTVSS | low polyreactivity
